We go through two molecules from patent US20210332115A1 (Sanofi, published 2021).

Test [1] addresses T1, Homo sapiens factor Bb protein (human, UniProt P00751 260-764).
T1 construct: Bought from CompTech (A155); also called complement factor Bb; human factor Bb
Kind of test: SPR single cycle kinetics; ratio against VH0/Vκ0. The procedure: (§1) In order to assess the binding of all humanized variants, single cycle kinetic analysis was performed on supernatants from transfected cell cultures. […] All single cycle kinetic experiments were run at 25° C. with HBS-P+running buffer (pH 7. 4) (GE Healthcare, Little Chalfont, UK).
(§2) Antibodies were diluted in running buffer to a final concentration of 1 μg/ml, based on concentrations assessed by ELISA titer. At the start of each cycle, antibodies were loaded onto Fc2, Fc3 and Fc4 of the Protein A chip (GE Healthcare, Little Chalfont, UK). IgGs were captured at a flow rate of 10 μl/min to give an immobilization level (RL) of ˜63 RU, the theoretical value to obtain an Rmax of ˜50 RU. The surface was then allowed to stabilize. Single cycle kinetic data was obtained with factor Bb (CompTech, Tyler, USA) as the analyte at a flow rate of 30 μl/min to minimize any potential mass transport limitations. Multiple repeats with the reference chimeric antibody were performed to check the stability of the surface and analyte over the kinetic cycles. The signal from the reference channel Fc1 (no antibody) was subtracted from that of Fc2, Fc3 and Fc4 to correct for differences in non-specific binding to a reference surface. A four point, two-fold dilution range from 0. 78 nM to 6. 25 nM factor Bb without regeneration between each concentration was used. The association phase for the four injections of increasing concentrations of factor Bb was monitored for 200 seconds each time and a single dissociation phase was measured for 200 seconds following the last injection of factor Bb. Regeneration of the Protein A surface was conducted using two injections of 10 mM glycine-HCL pH 1. 5.
(§3) The sensorgrams and fitted data for the single cycle kinetics are shown in FIGS. 1A-1D and the kinetic parameters measured for the interaction of factor Bb with each antibody are shown in Table 7. The relative KD was calculated by dividing the KD of the VH0/Vκ0 reference antibody by that of the humanized variant assayed in the same experiment.

For test [2], the target named is T1, Homo sapiens factor Bb protein. Kind of test: BLI Octet, biotinylated antibody on SA biosensors. On the procedure:
Briefly, biotinylated antibodies were loaded onto SA Biosensors equilibrated in PBS, 0.1% BSA, 0.02% Tween-20 (assay buffer). After a 60 second baseline in assay buffer, antibodies were loaded onto the probes for 180 seconds, followed by another 60 second baseline. Association to human (Comptech) or cynomolgus monkey factor Bb (purified in-house) was measured for 300 seconds, followed by a 300 second dissociation. Kinetic parameters were calculated by the Octet Analysis software using a 1:1 binding model.

For test [3] the target is unchanged. Kind of test: SPR single cycle kinetics, IgG on Protein A chip, factor Bb analyte. On the procedure: as §1, §2, §3
Test [4] shares this target. Description: competition ELISA on coated factor Bb; competitor murine parental antibody. On the procedure: Factor Bb was diluted in 1× PBS to 1.0 μg/ml and 100 μl/well was coated overnight at 4° C. on a 96-well ELISA plate. The following day the plates were blocked for two hours at room temperature with 1% casein/PBS before washing 2× with PBS pH 7.4. In a 96-well dilution plate a fixed concentration of murine parental antibody (0.5 μg/ml, final concentration) was added in equal volume to a four-fold titration series of test antibody (starting from 45 μg/ml to 0.01 μg/ml, final concentration) diluted in blocking buffer. After washing the plate 3× with PBS-T, 100 μl of chimeric/test antibody mix was added to the ELISA plate. After incubating at room temperature for one hour, the plate was washed 3× with PBS-T and 100 μl of anti-mouse IgG Fc-Specific HRP (Sigma, Dorset, UK) diluted 1:1000 in PBS-T was applied for one hour at room temperature to detect bound mouse antibody. For color development, the plate was washed 3× with PBS-T following which 100 μl of TMB substrate was added and incubated for approximately five minutes at room temperature. The reaction was stopped with 50 μl of 3.0 M hydrochloric acid and absorbance was read immediately using a DYNEX ® plate reader at 450 nm.
IC50 values were calculated for each variant and relative IC50 values were calculated by dividing the IC50 of the humanized variant by that of the chimeric antibody assayed on the same plate (Table 11).

The target is the same in test [5]. Description: SPR single cycle kinetics; against cynomolgus monkey factor Bb. The procedure: (§4) The ability of VH4/VK6 and VH6/VK7 to bind to zymogen factor B and factor Bb from both human and cynomolgus monkey was determined by surface plasmon resonance using a Biacore T200. Human factor B and factor Bb were purchased from Comptech and cynomolgus monkey factor B and factor Bb were purified in-house. Briefly, the monoclonal antibodies were captured on a Biacore Series S Protein A chip in HBSP+ (10 mM HEPES, 150 mM NaCl, 0.05% P20 pH 7.4) at a flow rate of 30 μL/min. A five-point concentration series of each analyte was tested for binding using single cycle kinetics with a contact time of 180 seconds per concentration followed by a 600 sec dissociation at 25° C. and a flow rate of […]. Both human and cynomolgus monkey factor B started at a concentration of 500 nM followed by 2-fold dilutions, while human and cynomolgus monkey factor Bb started at concentrations of 30 nM and 150 nM, respectively, followed by 2-fold dilutions. Data were analyzed using the Biacore evaluation software using a 1:1 binding model. […] Binding to human or cynomolgus monkey factor B was barely detectable and the small signal that was observed was dominated by non-specific binding.

The target is the same in test [6]. Kind of test: SPR single cycle kinetics, antibody on Protein A chip, antigen analyte. The procedure:
as §4

For test [7] the target is unchanged. Description: BLI, multi-cycle kinetics, antibody loaded on anti-hIgG Fc sensors, human factor Bb in solution (100 nM to 0.14 nM), 1:1 fit. The procedure:
Multicycle kinetic analysis was performed on CHO and HEK-produced VH6/VK7-IgG4v2 antibodies using biolayer interferometry. Antibodies were diluted to 10 μg/mL in PBS+ 0.02%. Tween20, 0.1% BSA, 0.05% sodium azide and loaded onto anti-hIgG Fc sensors (pre-equilibrated in the same buffer) for 90 seconds followed by a 60-minute baseline in buffer. Binding of a concentration series of human factor Bb (Complement Technologies, #A155), ranging from 100 nM to 0.14 nM in 2-fold dilutions, was measured in a 300 second association in the same buffer, followed by a 300 second dissociation step.

T1 sequence (P00751 260-764 limits assumed): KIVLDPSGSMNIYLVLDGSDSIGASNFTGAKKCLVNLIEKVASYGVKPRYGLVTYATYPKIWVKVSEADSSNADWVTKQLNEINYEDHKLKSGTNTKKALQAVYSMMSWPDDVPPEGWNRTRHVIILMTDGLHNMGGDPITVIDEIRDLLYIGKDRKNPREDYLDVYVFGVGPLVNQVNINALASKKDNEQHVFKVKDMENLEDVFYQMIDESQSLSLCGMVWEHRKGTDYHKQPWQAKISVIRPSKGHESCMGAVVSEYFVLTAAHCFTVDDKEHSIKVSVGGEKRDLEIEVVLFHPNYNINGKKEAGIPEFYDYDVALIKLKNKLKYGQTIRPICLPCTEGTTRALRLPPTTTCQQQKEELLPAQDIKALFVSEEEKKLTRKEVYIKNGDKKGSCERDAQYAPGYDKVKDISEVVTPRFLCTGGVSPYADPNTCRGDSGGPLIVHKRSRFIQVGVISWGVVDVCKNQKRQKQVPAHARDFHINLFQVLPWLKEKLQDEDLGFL

B1: VH0/Vκ0 (Chimeric) (antibody, V domains shown)
VH: EVQLVESGGALVKPGGSLKLSCAASGFTFSNYAMSWVRQTPEKRLEWVATISNRGSYTYYPDSVKGRFTISRDNAKNTLYLQMSSLRSEDTALYYCARERPMDYWGQGTSVTVSS
VL: DIVMTQSHKFMSTSVGDRVSITCKASQDVGTAVAWYQQKPGQSPKLLIYWASTRHTGVPDRFTGSGSGTDFTLTITNVQSEDLAVYFCHQHSSNPLTFGAGTKLELK
notes: also called chimeric antibody
B1: the “Relative KD” value in test [1] came to 1. Also, in test [2], the affinity, expressed as Kd, was 2 nM. Further, in test [3], binding was put at a Kd of 1.76 nM, the koff worked out at 0.00103 s⁻¹ and the association rate constant (kon) was 585000 M⁻¹ s⁻¹. In test [4], the IC50 came to 1.23 nM.

B2: VH6/Vκ7-IgG4v2 (antibody)
heavy: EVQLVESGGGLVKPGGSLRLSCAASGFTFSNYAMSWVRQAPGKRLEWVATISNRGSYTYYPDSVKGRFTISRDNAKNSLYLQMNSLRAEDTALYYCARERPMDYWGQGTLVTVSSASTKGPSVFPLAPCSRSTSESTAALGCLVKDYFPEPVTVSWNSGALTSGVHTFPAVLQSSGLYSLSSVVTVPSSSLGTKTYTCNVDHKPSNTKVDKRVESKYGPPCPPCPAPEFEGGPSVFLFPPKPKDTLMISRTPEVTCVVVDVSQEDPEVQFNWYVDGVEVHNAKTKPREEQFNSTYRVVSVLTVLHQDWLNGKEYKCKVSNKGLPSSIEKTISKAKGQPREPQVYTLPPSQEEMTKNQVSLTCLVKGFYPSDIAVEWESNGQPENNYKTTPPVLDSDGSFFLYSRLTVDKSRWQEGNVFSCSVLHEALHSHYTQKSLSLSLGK
light: DIQMTQSPSTLSASVGDRVTITCKASQDVGTAVAWYQQKPGKAPKLLIYWASTRHTGVPDRFSGSGSGTDFTLTISSLQAEDFAVYFCHQHSSNPLTFGQGTKLEIKRTVAAPSVFIFPPSDEQLKSGTASVVCLLNNFYPREAKVQWKVDNALQSGNSQESVTEQDSKDSTYSLSSTLTLSKADYEKHKVYACEVTHQGLSSPVTKSFNRGEC
notes: also called VH6/VK7-IgG4v2; VH6/VK7-IgG4v2_HEK
As for B2, the “fold higher affinity for human factor Bb compared to cynomolgus monkey factor Bb” value in test [5] was around 10 fold. In test [6], this molecule gave a Kd of 5.92 nM, a koff of 0.00138 s⁻¹ and a kon of 232000 M⁻¹ s⁻¹. This molecule returned a Kd in test [7] of 2.9 nM.
